Columns and labels:
[1] = biological target: T1, PU.1 ETS domain (PU.1ΔN167) (murine, UniProt P17433 167-272); assay: competition
[2] = biological target: T1, PU.1 ETS domain (PU.1ΔN167); assay: competition; remark: listed apart in the source
[3] = biological target: T1, PU.1 ETS domain (PU.1ΔN167); assay: fluorescence anisotropy

B1: [5']AGC (dsDNA)
DNA 1: GCGAATAAGCGGAAGTGAAACCG
DNA 2: CGGTTTCACTTCCGCTTATTCGC
[1]
  binding signal: ~1 Kd ratio to Cy3-[5']AGC (equal within experimental uncertainty)

B2: NS (dsDNA)
DNA 1: GCGAATAAGCGAGAGTGAAACCG
DNA 2: CGGTTTCACTCTCGCTTATTCGC
[2]
  binding result: no binding

B3: Alexa Fluor 488 end-labeled duplex (dsDNA)
DNA 1: CAAGCGGAAGTGAG
DNA 2: CTCACTTCCGCTTG
[3]
  binding result: binds

Source: article PMC4872103
